The text below walks through data of US20090054323A1 (published 2009).

The labels stand for the following.
T1: human Ang-2 (human, UniProt O15123 19-496, limits assumed)
T1 construct: Sources differ by assay: R&D Systems 623-AN (mixture of 2 truncated versions) for initial screening; also called hAng-2; huAng-2
T1 sequence (looked up): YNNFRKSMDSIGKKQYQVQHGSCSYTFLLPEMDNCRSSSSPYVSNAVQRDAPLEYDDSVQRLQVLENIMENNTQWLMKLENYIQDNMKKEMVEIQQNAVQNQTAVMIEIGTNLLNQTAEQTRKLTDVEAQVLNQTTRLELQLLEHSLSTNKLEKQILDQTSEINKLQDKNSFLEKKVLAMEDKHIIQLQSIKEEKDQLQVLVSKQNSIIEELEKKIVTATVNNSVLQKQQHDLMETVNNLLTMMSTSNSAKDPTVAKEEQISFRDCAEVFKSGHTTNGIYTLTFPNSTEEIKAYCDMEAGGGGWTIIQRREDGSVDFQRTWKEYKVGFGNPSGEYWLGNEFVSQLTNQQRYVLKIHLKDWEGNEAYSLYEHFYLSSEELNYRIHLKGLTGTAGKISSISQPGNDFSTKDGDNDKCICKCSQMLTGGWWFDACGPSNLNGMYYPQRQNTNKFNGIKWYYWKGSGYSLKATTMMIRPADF

B1: L1-7 Peptide (peptide)
peptide: CGGGGGAQTNFMPMDDLEQRLYEQFILQQGLE
notes: Synthetic peptide with N-terminal Cys and 5Gly linker; also called L1-7(unPEGylated Peptide); L1-7 free peptide
B2: PEO4(L1-7 Peptide)2 (peptide)
peptide: C(1,11‑bis‑maleimidotetraethyleneglycol)GGGGGAQTNFMPMDDLEQRLYEQFILQQGLE
modifications: also: two peptides joined through Cys1 by 1,11-bis-maleimidotetraethyleneglycol, one on each end
B3: PEG3.4K(L1-7 Peptide)2 (peptide)
peptide: C(poly(ethylene glycol)‑bis‑maleimide 3.4 kDa)GGGGGAQTNFMPMDDLEQRLYEQFILQQGLE
modifications: also: two peptides joined through Cys1 by PEG-bis-maleimide 3.4 kDa, one on each end
B4: L1 (peptide)
peptide: KFNPLDELEETLYEQFTFQQ
notes: Peptide from phage display selection on Ang-2
B5: TN8-14 (peptide)
peptide: HQICKWDPWTCKHW
notes: as for B4
B6: TN8-8 (peptide)
peptide: KRPCEEMWGGCNYD
notes: as for B4
B7: TN12-9 (peptide)
peptide: FDYCEGVEDPFTFGCDNH
notes: as for B4
B8: C17 (peptide)
peptide: QYGCDGFLYGCMIN
notes: as for B4

Where no end group is shown, it is not given here.

For the first test, the target named is T1, human Ang-2. Kind of test: neutralization ELISA vs Tie-2-Fc.
B1 gave an IC50 of 0.49 nM.
Still for that read-out and setting: with B2 the figure was 0.064 nM; with B3, 0.058 nM; with C(methoxy‑poly(ethylene glycol)‑maleimide 5 kDa)GGGGGAQTNFMPMDDLEQRLYEQFILQQGLE [mPEG5K-(L1-7 Peptide)], 11.7 nM.

Another test addresses T1, human Ang-2. The experiment in a line: phage display selection and phage ELISA on Ang-2. Here is the method: Three filamentous phage libraries, designated as “TN8-IX” (5×10⁹ independent transformants), “TN12-I” (1.4×10⁹ independent transformants), and “Linear” (2.3×10⁹ independent transformants) (all from Dyax Corp.), were used to select for Ang-2 binding phage. […] For all three libraries, the phage from the first round of selection were eluted only in a non-specific manner for further rounds of selection.
An XL-1 Blue MRF′ culture was grown until OD₆₀₀ reached about 0.5. About thirty μl of this culture was aliquoted into each well of a 96-well microtiter plate. About 10 μl of eluted phage (section 4) was added to each well and allowed to infect bacteria for about 15 minutes at room temperature. About 100 μL of LB media containing approximately 12.5 μg/ml of tetracycline and approximately 50 μg/ml of ampicillin were added to each well. The microtiter plate was then incubated with shaking overnight at about 37° C. The recombinant Ang-2 protein (about 1 μg/ml in PBS) was allowed to bind to the 96 well Maxisorp plates (NUNC) overnight at about 4° C. As a control, the pure streptavidin was coated onto a separate Maxisorp plate at about 2 μg/ml in PBS.
On the following day, liquid in the protein coated Maxisorp plates was discarded, and each well was blocked with about 300 μl of 5% milk solution at about 4° C. overnight (alternatively, 1 hour at room temperature). The milk solution was then discarded, and the wells were washed three times with the PBST solution. After the last washing step, about 50 μl of PBST-4% milk was added to each well of the protein coated Maxisorp plates.
Background: An ELISA detects its analyte on a solid surface through an enzyme-linked reagent.
For the molecule B4, the binding result was “binds”.
Consider QEECEWDPWTCEHM [TN8-Con4], for which the binding result was “binds”.
The same measure, in the same setting: with B5 the entry was “binds”; with B6, “binds”; with B7, “binds”.
The same measure, in the same setting: in the case of KRPCEEIFGGCTYQ [TN8-Con1] it was “binds”; in that of B8, “binds”.

As a reminder, the IC50 is the concentration needed to halve the response being measured.
